Numbering of substitutions follows the chain as printed.
T1: ELAC2 (cryo-EM);TRMT10C;SDR5C1 (Homo sapiens;Homo sapiens;Homo sapiens, UniProt Q9BQ52;Q7L0Y3;Q99714 32-826;40-403;1-261, ||)
T1 sequence 1: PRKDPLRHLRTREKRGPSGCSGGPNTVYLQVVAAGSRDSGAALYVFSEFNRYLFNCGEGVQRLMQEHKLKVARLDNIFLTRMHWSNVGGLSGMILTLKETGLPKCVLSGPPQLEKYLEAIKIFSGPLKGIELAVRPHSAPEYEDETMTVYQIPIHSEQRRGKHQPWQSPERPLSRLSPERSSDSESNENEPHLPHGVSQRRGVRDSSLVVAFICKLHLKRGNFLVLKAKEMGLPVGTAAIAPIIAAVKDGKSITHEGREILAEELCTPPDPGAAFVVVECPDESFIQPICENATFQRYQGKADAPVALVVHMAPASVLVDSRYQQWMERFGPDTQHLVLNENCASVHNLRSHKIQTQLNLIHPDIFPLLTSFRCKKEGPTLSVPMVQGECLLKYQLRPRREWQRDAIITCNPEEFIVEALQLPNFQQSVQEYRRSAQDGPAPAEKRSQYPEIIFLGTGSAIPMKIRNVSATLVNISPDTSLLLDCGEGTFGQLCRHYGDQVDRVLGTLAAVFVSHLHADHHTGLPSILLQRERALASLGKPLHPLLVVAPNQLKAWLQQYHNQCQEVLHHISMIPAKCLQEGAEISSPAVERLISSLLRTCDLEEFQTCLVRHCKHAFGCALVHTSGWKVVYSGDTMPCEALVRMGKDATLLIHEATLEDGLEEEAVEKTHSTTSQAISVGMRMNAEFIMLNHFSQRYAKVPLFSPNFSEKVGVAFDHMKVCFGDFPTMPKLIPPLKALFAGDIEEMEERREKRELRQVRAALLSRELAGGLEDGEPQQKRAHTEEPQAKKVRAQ
T1 sequence 2: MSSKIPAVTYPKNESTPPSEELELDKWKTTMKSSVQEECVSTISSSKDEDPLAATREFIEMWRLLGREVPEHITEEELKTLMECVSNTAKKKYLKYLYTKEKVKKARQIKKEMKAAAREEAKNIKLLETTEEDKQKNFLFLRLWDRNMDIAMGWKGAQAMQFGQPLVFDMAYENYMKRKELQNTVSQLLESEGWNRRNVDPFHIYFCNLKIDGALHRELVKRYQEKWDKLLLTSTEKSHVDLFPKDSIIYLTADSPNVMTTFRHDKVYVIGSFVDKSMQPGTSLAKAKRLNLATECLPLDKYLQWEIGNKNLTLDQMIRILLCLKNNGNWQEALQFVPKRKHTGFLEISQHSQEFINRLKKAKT
T1 sequence 3: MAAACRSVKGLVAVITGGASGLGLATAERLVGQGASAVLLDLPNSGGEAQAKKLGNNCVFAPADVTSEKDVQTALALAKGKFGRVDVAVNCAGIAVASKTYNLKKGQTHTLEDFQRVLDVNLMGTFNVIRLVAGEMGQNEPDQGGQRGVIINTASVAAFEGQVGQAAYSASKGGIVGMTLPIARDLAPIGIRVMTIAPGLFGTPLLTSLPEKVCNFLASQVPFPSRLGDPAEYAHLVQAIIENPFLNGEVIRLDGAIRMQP

T2: Δ1–31 ELAC2-Asp550Asn (human, UniProt Q9BQ52 32-826, Asp550Asn)
T2 construct: Cloned in the 438-B vector (Addgene plasmid 55219) with an N-terminal 6xHis tag and a TEV site; the tag was removed with TEV protease; also called ELAC2^mut; ELAC2(D550N); source: Hi-Five insect cells (baculovirus), purified (HisTrap, TEV cleavage, heparin, Superdex 200); not shown: 6xHis, N-terminal, cleaved
T2 sequence (looked up): T1 sequence 1 with D519N

B1: 5-tRNAGln-24 Trailer(Tyr) (structured_RNA)
RNA: GGUGAUAGGAUGGGGUGUGAUAGGUGGCACGGAGAAUUUUGGAUUCUCAGGGAUGGGUUCGAUUCUCAUAGUCCUAGGCUCCGAGGUGAUUUUCAAGCUCG
B2: Δ1–91 TRMT10C (enzyme, human, UniProt Q7L0Y3 92-403, looked up)
chain: AATREFIEMWRLLGREVPEHITEEELKTLMECVSNTAKKKYLKYLYTKEKVKKARQIKKEMKAAAREEAKNIKLLETTEEDKQKNFLFLRLWDRNMDIAMGWKGAQAMQFGQPLVFDMAYENYMKRKELQNTVSQLLESEGWNRRNVDPFHIYFCNLKIDGALHRELVKRYQEKWDKLLLTSTEKSHVDLFPKDSIIYLTADSPNVMTTFRHDKVYVIGSFVDKSMQPGTSLAKAKRLNLATECLPLDKYLQWEIGNKNLTLDQMIRILLCLKNNGNWQEALQFVPKRKHTGFLEISQHSQEFINRLKKAKT
notes: TRMT10C (MRPP1), human, Δ1–91, used for the structural studies; also called MRPP1
B3: SDR5C1 (enzyme, human)
chain: T1 sequence 3
notes: also called MRPP2; HSD17B10

How the values were obtained:
[1] = target: T1, ELAC2 (cryo-EM);TRMT10C;SDR5C1; assay: cryo-EM structure; mt-RNase Z Gln complex (EMD-19455); FA: 20 mM Tris-HCl pH 8, 80 mM NaCl, 40 mM KCl, 3 mM MgCl2, 5% glycerol, 2 mM DTT; 20 nM RNA; 20 min at 20 C, read at room temperature; conditions: protein: recombinant;recombinant;recombinant; tags: N-terminal 6xHis-TEV (cleaved);;; copies: 1;1;4; tRNA cloverleaf with canonical elbow
Δ1–31 ELAC2-Asp550Asn = target: T2, Δ1–31 ELAC2-Asp550Asn; assay: cryo-EM structure; mt-RNase Z^Gln: 5–tRNA^Gln–24 first 5′ processed with Δ1–91 TRMT10C–SDR5C1 and Δ1–45 PRORP, then Δ1–31 ELAC2-Asp550Asn added, on ice 60 min; GraFix 10–30% sucrose gradient with 0–0.015% glutaraldehyde, 25 mM Na–HEPES pH 7.5, 20 mM NaCl, 20 μM ZnCl2; pre-mt-tRNA^Gln is part of the complex; conditions: both partners purified
Δ1–91 TRMT10C = target: B2; assay: as above; conditions: both partners purified

Binder: B1
binding result [1]: binds

Binder: B2
binding result (Δ1–31 ELAC2-Asp550Asn): binds

Binder: B3
binding result (Δ1–91 TRMT10C): binds

Reference: article PMC11996679, “Molecular basis of human nuclear and mitochondrial tRNA 3′ processing” (Nature Structural & Molecular Biology, 2024)
